*1 amine or outer side, *2 acyl side, *3 side chain or, on linkers, in order; H or OH if unused. Bridges are numbered along the chain shown (N, C = ends). Where no end group is shown, it is not given here. Side-chain parts run from the residue outwards. [ ]: non-standard residue; d: D form. The star is where a group is joined. C20 diacid = O=C(O)CCCCCCCCCCCCCCCCCCC(=O)*; C18 diacid = O=C(O)CCCCCCCCCCCCCCCCC(=O)*; γGlu = O=C(O)[C@H](CCC(=O)[*:2])N[*:1]; AEEA = NCCOCCOCC(=O)O; Aib = CC(C)(N)C(=O)O
T1: human GIP receptor (human, UniProt P48546 22-466)
T1 sequence (looked up): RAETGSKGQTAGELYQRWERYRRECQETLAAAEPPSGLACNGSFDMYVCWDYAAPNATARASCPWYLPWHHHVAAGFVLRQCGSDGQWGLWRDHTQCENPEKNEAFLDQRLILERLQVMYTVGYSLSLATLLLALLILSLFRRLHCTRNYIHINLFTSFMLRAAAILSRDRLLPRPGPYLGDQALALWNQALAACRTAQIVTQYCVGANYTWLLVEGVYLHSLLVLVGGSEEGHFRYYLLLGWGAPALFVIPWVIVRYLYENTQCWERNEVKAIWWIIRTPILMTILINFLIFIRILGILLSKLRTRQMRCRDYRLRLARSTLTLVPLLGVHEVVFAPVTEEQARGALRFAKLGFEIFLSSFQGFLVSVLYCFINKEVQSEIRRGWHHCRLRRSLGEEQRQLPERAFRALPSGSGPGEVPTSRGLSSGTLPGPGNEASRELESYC

B1: triple agonist of SEQ ID NO: 8 (peptide)
peptide: Y[Aib]QGTFTSDYSK([AEEA-AEEA-γGlu-C18 diacid])YLDEKRAKEFVQWLLDHHPSSGQPPPS-NH2
modifications: lactam 16-20; N-terminus assumed
SMILES: CC(C)C[C@H](NC(=O)[C@H](Cc1ccc(O)cc1)NC(=O)[C@H](CCCCNC(=O)COCCOCCNC(=O)COCCOCCNC(=O)CC[C@H](NC(=O)CCCCCCCCCCCCCCCCC(=O)O)C(=O)O)NC(=O)[C@H](CO)NC(=O)[C@H](Cc1ccc(O)cc1)NC(=O)[C@H](CC(=O)O)NC(=O)[C@H](CO)NC(=O)[C@@H](NC(=O)[C@H](Cc1ccccc1)NC(=O)[C@@H](NC(=O)CNC(=O)[C@H](CCC(N)=O)NC(=O)C(C)(C)NC(=O)[C@@H](N)Cc1ccc(O)cc1)[C@@H](C)O)[C@@H](C)O)C(=O)N[C@@H](CC(=O)O)C(=O)N[C@H]1CCC(=O)NCCCC[C@@H](C(=O)N[C@@H](CCC(=O)O)C(=O)N[C@@H](Cc2ccccc2)C(=O)N[C@H](C(=O)N[C@@H](CCC(N)=O)C(=O)N[C@@H](Cc2c[nH]c3ccccc23)C(=O)N[C@@H](CC(C)C)C(=O)N[C@@H](CC(C)C)C(=O)N[C@@H](CC(=O)O)C(=O)N[C@@H](Cc2c[nH]cn2)C(=O)N[C@@H](Cc2c[nH]cn2)C(=O)N2CCC[C@H]2C(=O)N[C@@H](CO)C(=O)N[C@@H](CO)C(=O)NCC(=O)N[C@@H](CCC(N)=O)C(=O)N2CCC[C@H]2C(=O)N2CCC[C@H]2C(=O)N2CCC[C@H]2C(=O)N[C@@H](CO)C(N)=O)C(C)C)NC(=O)[C@H](C)NC(=O)[C@H](CCCNC(=N)N)NC(=O)[C@H](CCCCN)NC1=O
B2: triple agonist of SEQ ID NO: 2 (peptide)
peptide: Y[Aib]QGTFTSDYSK([AEEA-AEEA-γGlu-C20 diacid])YLDEKRAKEFVQWLLDHHPSSGQPPPS-NH2
modifications: lactam 16-20; N-terminus assumed
SMILES: CC(C)C[C@H](NC(=O)[C@H](Cc1ccc(O)cc1)NC(=O)[C@H](CCCCNC(=O)COCCOCCNC(=O)COCCOCCNC(=O)CC[C@H](NC(=O)CCCCCCCCCCCCCCCCCCC(=O)O)C(=O)O)NC(=O)[C@H](CO)NC(=O)[C@H](Cc1ccc(O)cc1)NC(=O)[C@H](CC(=O)O)NC(=O)[C@H](CO)NC(=O)[C@@H](NC(=O)[C@H](Cc1ccccc1)NC(=O)[C@@H](NC(=O)CNC(=O)[C@H](CCC(N)=O)NC(=O)C(C)(C)NC(=O)[C@@H](N)Cc1ccc(O)cc1)[C@@H](C)O)[C@@H](C)O)C(=O)N[C@@H](CC(=O)O)C(=O)N[C@H]1CCC(=O)NCCCC[C@@H](C(=O)N[C@@H](CCC(=O)O)C(=O)N[C@@H](Cc2ccccc2)C(=O)N[C@H](C(=O)N[C@@H](CCC(N)=O)C(=O)N[C@@H](Cc2c[nH]c3ccccc23)C(=O)N[C@@H](CC(C)C)C(=O)N[C@@H](CC(C)C)C(=O)N[C@@H](CC(=O)O)C(=O)N[C@@H](Cc2c[nH]cn2)C(=O)N[C@@H](Cc2c[nH]cn2)C(=O)N2CCC[C@H]2C(=O)N[C@@H](CO)C(=O)N[C@@H](CO)C(=O)NCC(=O)N[C@@H](CCC(N)=O)C(=O)N2CCC[C@H]2C(=O)N2CCC[C@H]2C(=O)N2CCC[C@H]2C(=O)N[C@@H](CO)C(N)=O)C(C)C)NC(=O)[C@H](C)NC(=O)[C@H](CCCNC(=N)N)NC(=O)[C@H](CCCCN)NC1=O
B3: triple agonist of SEQ ID NO: 9 (peptide)
peptide: Y[Aib]QGTFTSDYSK([AEEA-AEEA-γGlu-C18 diacid])YLDEKAAKEFVQWLLDHHPSSGQPPPS-NH2
modifications: lactam 16-20; N-terminus assumed
SMILES: CC(C)C[C@H](NC(=O)[C@H](Cc1ccc(O)cc1)NC(=O)[C@H](CCCCNC(=O)COCCOCCNC(=O)COCCOCCNC(=O)CC[C@H](NC(=O)CCCCCCCCCCCCCCCCC(=O)O)C(=O)O)NC(=O)[C@H](CO)NC(=O)[C@H](Cc1ccc(O)cc1)NC(=O)[C@H](CC(=O)O)NC(=O)[C@H](CO)NC(=O)[C@@H](NC(=O)[C@H](Cc1ccccc1)NC(=O)[C@@H](NC(=O)CNC(=O)[C@H](CCC(N)=O)NC(=O)C(C)(C)NC(=O)[C@@H](N)Cc1ccc(O)cc1)[C@@H](C)O)[C@@H](C)O)C(=O)N[C@@H](CC(=O)O)C(=O)N[C@H]1CCC(=O)NCCCC[C@@H](C(=O)N[C@@H](CCC(=O)O)C(=O)N[C@@H](Cc2ccccc2)C(=O)N[C@H](C(=O)N[C@@H](CCC(N)=O)C(=O)N[C@@H](Cc2c[nH]c3ccccc23)C(=O)N[C@@H](CC(C)C)C(=O)N[C@@H](CC(C)C)C(=O)N[C@@H](CC(=O)O)C(=O)N[C@@H](Cc2c[nH]cn2)C(=O)N[C@@H](Cc2c[nH]cn2)C(=O)N2CCC[C@H]2C(=O)N[C@@H](CO)C(=O)N[C@@H](CO)C(=O)NCC(=O)N[C@@H](CCC(N)=O)C(=O)N2CCC[C@H]2C(=O)N2CCC[C@H]2C(=O)N2CCC[C@H]2C(=O)N[C@@H](CO)C(N)=O)C(C)C)NC(=O)[C@H](C)NC(=O)[C@H](C)NC(=O)[C@H](CCCCN)NC1=O
B4: triple agonist of SEQ ID NO: 3 (peptide)
peptide: Y[Aib]QGTFTSDYSK([AEEA-AEEA-γGlu-C20 diacid])YLDEKAAKDFVQWLLDQHPSSGQPPPS-NH2
modifications: lactam 16-20; N-terminus assumed
SMILES: CC(C)C[C@H](NC(=O)[C@H](Cc1ccc(O)cc1)NC(=O)[C@H](CCCCNC(=O)COCCOCCNC(=O)COCCOCCNC(=O)CC[C@H](NC(=O)CCCCCCCCCCCCCCCCCCC(=O)O)C(=O)O)NC(=O)[C@H](CO)NC(=O)[C@H](Cc1ccc(O)cc1)NC(=O)[C@H](CC(=O)O)NC(=O)[C@H](CO)NC(=O)[C@@H](NC(=O)[C@H](Cc1ccccc1)NC(=O)[C@@H](NC(=O)CNC(=O)[C@H](CCC(N)=O)NC(=O)C(C)(C)NC(=O)[C@@H](N)Cc1ccc(O)cc1)[C@@H](C)O)[C@@H](C)O)C(=O)N[C@@H](CC(=O)O)C(=O)N[C@H]1CCC(=O)NCCCC[C@@H](C(=O)N[C@@H](CC(=O)O)C(=O)N[C@@H](Cc2ccccc2)C(=O)N[C@H](C(=O)N[C@@H](CCC(N)=O)C(=O)N[C@@H](Cc2c[nH]c3ccccc23)C(=O)N[C@@H](CC(C)C)C(=O)N[C@@H](CC(C)C)C(=O)N[C@@H](CC(=O)O)C(=O)N[C@@H](CCC(N)=O)C(=O)N[C@@H](Cc2c[nH]cn2)C(=O)N2CCC[C@H]2C(=O)N[C@@H](CO)C(=O)N[C@@H](CO)C(=O)NCC(=O)N[C@@H](CCC(N)=O)C(=O)N2CCC[C@H]2C(=O)N2CCC[C@H]2C(=O)N2CCC[C@H]2C(=O)N[C@@H](CO)C(N)=O)C(C)C)NC(=O)[C@H](C)NC(=O)[C@H](C)NC(=O)[C@H](CCCCN)NC1=O

How the values were obtained:
[1] = Weight loss effect in AMLN diet-induced obese mice; type: in vivo; conditions: 351 ug/kg, Q2D, subcutaneously, 2 weeks, vs. excipient control, p<0.001 one-way ANOVA, FIG. 1
Description: In order to confirm the weight loss effect of each of the three triple agonists of SEQ ID NO: 1, SEQ ID NO: 2, and SEQ ID NO: 4 prepared in the Example above, an AMLN (amylin) mouse model, known as an obesity model, was used. AMLN diet-induced mice were divided into an excipient control group and groups administered with three types of triple agonists (351 ug/kg, Q2D, subcutaneously), and the administration was repeated for 2 weeks.
After repeated administration for 2 weeks, the body weight was measured, and the change in body weight relative to the body weight immediately before administration (DO) was measured to evaluate weight loss effect.

[2] = target: human GLP-1 receptor (human, UniProt P43220 24-463); test: cell-based or functional assay
[3] = target: human GCG receptor (human, UniProt P47871 26-477); test: cell-based or functional assay
[4] = target: T1, human GIP receptor; test: cell-based or functional assay

Sequence of human GCG receptor (P47871 26-477): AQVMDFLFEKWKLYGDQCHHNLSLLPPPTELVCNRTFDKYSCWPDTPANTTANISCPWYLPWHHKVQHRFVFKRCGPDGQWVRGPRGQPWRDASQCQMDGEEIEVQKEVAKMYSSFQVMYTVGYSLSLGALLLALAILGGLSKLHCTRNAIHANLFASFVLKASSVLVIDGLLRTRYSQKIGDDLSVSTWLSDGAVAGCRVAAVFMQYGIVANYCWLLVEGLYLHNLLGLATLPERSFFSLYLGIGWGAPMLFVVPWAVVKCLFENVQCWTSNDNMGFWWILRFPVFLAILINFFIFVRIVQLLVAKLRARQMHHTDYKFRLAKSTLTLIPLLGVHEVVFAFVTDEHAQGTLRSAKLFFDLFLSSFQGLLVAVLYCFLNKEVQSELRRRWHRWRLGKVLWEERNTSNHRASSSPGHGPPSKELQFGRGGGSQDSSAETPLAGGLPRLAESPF

Row | Molecule | weight loss efficacy (change in body weight relative to immediately before administration) [1] | In vitro Activity Compared to Native Peptide (%) vs. GLP-1 (relative titer from cAMP EC50) [2] | In vitro Activity Compared to Native Peptide (%) vs. Glucagon (relative titer from cAMP EC50) [3] | In vitro Activity Compared to Native Peptide (%) vs. GIP (relative titer from cAMP EC50) [4]
1 | Y-Aib-QGTFTSDYSK(1)YLDEKAAKEFVQWLLDHHPSSGQPPPS (Y[Aib]QGTFTSDYSK([AEEA-AEEA-γGlu-C20 diacid])YLDEKAAKEFVQWLLDHHPSSGQPPPS-NH2; lactam 16-20; N-terminus assumed; SMILES CC(C)C[C@H](NC(=O)[C@H](Cc1ccc(O)cc1)NC(=O)[C@H](CCCCNC(=O)COCCOCCNC(=O)COCCOCCNC(=O)CC[C@H](NC(=O)CCCCCCCCCCCCCCCCCCC(=O)O)C(=O)O)NC(=O)[C@H](CO)NC(=O)[C@H](Cc1ccc(O)cc1)NC(=O)[C@H](CC(=O)O)NC(=O)[C@H](CO)NC(=O)[C@@H](NC(=O)[C@H](Cc1ccccc1)NC(=O)[C@@H](NC(=O)CNC(=O)[C@H](CCC(N)=O)NC(=O)C(C)(C)NC(=O)[C@@H](N)Cc1ccc(O)cc1)[C@@H](C)O)[C@@H](C)O)C(=O)N[C@@H](CC(=O)O)C(=O)N[C@H]1CCC(=O)NCCCC[C@@H](C(=O)N[C@@H](CCC(=O)O)C(=O)N[C@@H](Cc2ccccc2)C(=O)N[C@H](C(=O)N[C@@H](CCC(N)=O)C(=O)N[C@@H](Cc2c[nH]c3ccccc23)C(=O)N[C@@H](CC(C)C)C(=O)N[C@@H](CC(C)C)C(=O)N[C@@H](CC(=O)O)C(=O)N[C@@H](Cc2c[nH]cn2)C(=O)N[C@@H](Cc2c[nH]cn2)C(=O)N2CCC[C@H]2C(=O)N[C@@H](CO)C(=O)N[C@@H](CO)C(=O)NCC(=O)N[C@@H](CCC(N)=O)C(=O)N2CCC[C@H]2C(=O)N2CCC[C@H]2C(=O)N2CCC[C@H]2C(=O)N[C@@H](CO)C(N)=O)C(C)C)NC(=O)[C@H](C)NC(=O)[C@H](C)NC(=O)[C@H](CCCCN)NC1=O) [SEQ ID NO: 1, acylated triple agonist peptide, K(1) at position 12, lactam bridge E16-K20, C-terminus amidated] | significant weight loss efficacy |  |  | 
2 | B1 |  | 9.68 % of human GLP-1 | 5.89 % of human GCG | 4.89 % of human GIP
3 | B2 |  | 3.87 % of human GLP-1 | 3.35 % of human GCG | 2.17 % of human GIP
4 | B3 |  | 15 % of human GLP-1 | 0.51 % of human GCG | 8.42 % of human GIP
5 | B4 |  | 5.52 % of human GLP-1 | 0.4 % of human GCG | 7.04 % of human GIP

Source: patent US20260116944A1, “NOVEL TRIPLE GLP-1/GIP/GLUCAGON RECEPTOR AGONIST AND A PHARMACEUTICAL COMPOSITION FOR PREVENTING OR TREATING OBESITY COMPRISING THE SAME” (HANMI PHARM. CO., LTD., priority 2022, published 2026)
